Source: the DeepSol protein solubility set

Experiment: soluble on expression in E. coli; label from the status in PepcDB or PDB records

Row | Sequence | soluble on expression in E. coli
1 | MRGCNKETGEFLGPSRSQQRRTALEVLVLSEKLAALTPAQLAKLPIPERLLPHITETKRITSHIARKRQLAFLAKQMRREDDTTLEAIREKLNASGIQAQREVATLHRTEQWRKRLLEEGDSALTELLNQYPQADCGKLRQLLRNSKTEQARNKAPQAFRELYQVLHGLIITQ | not soluble
2 | MRGLTPEQTLMLADAFCAQTSGDLSVRDYAALNAIAAVTTAHIHAVVVFPTAHHMVKYVRSLVIQLSPLDDRNTDFADFLVAVLRDLNGL | not soluble
3 | MRGSHHHHHHGMASHMATEQTAITRATFDEVILPVYAPADFIPVKGKGSRVWDQQGKEYIDFAGGIAVTALGHCHPALVEALKSQGETLWHTSNVFTNEPALRLGRKLIDATFAERVLFMNSGTEANETAFKLARHYACVRHSPFKTKIIAFHNAFHGRSLFTVSVGGQPKYSDGFGPKPADIIHVPFNDLHAVKAVMDDHTCAVVVEPIQGEGGVQAATPEFLKGLRDLCDEHQALLVFDEVQCGMGRTGDLFAYMHYGVTPDILTSAKALGGGFPVSAMLTTQEIASAFHVGSHGSTYGGNPLACAVAGAAFDIINTPEVLQGIHTKRQQFVQHLQAIDEQFDIFSDIRGMGLLIGAELKPKYKGRARDFLYAGAEAGVMVLNAGADVMRFAPSLVVEEADIHEGMQRFAQAVGKVVA | soluble
4 | MRGSHHHHHHGSAERMLATIMFTDIVGSTQHAAALGDDRWRDLLDNHDTIVCHEIQRFGGREVNTAGDGFVATFTSPSAAIACADDIVDAVAALGIEVRIGIHAGEVEVRDASHGTDVAGVAVHIGARVCALAGPSEVLVSSTVRDIVAGSRHRFAERGEQELKGVPGRWRLCVLMRDDATRTR | soluble
5 | MRGSHHHHHHGSIEGRMEKINYLLPEESAEMTLNQVKSLRQIEGRLRKLFSLKNYQEVMPPSFEYTQLYTALESNGKTFNQEKMFQFIKHEGQSITLRYDFTLPLVRLYSQIKDSTSARYSYFGKIFRKEKRHKGRSTENYQIGIELFGESADKSELEILSLALQVIEQLGLNKTVFEIGSAKFFQRLCQLADGSTELLTELLLKKDLSGLNAFIEKNNFSKELRGLLKEIFITNELSRLENLVTNTKDDVLISSFDQLKEFSEKLSMIKPIIIDLGMVPKMDYYTDLMFKAYSSAANQPILSGGRYDQLLSNFQEEAFAIGFCCHMDTILKALERQELEEDND | soluble
6 | MRGSHHHHHHMSIITDVYAREVLDSRGNPTLEVEVYTESGAFGRGMVPSGASTGEHEAVELRDGDKSRYGGLGTQKAVDNVNNIIAEAIIGYDVRDQQAIDRAMIALDGTPNKGKLGANAILGVSIAVARAAADYLEIPLYSYLGGFNTKVLPTPMMNIINGGSHSDAPIAFQEFMILPVGAPTFKEALRYGAEIFHALKKILKSRGLETAVGDEGGFAPRFEGTEDGVETILAAIEAAGYVPGKDVFLGFDCASSEFYDKERKVYDYTKFEGEGAAVRTSAEQIDYLEELVNKYPIITIEDGMDENDWDGWKALTERLGKKVQLVGDDFFVTNTDYLARGIQEGAANSILIKVNQIGTLTETFEAIEMAKEAGYTAVVSHRSGETEDSTIADIAVATNAGQIKTGSLSRTDRIAKYNQLLRIEDQLGEVAEYRGLKSFYNLKK | soluble
7 | MRGSHHHHHHTDPALRACELLGMSANVPTDICFSFTGLVQRGGGTGPHKDGWGITFYEGKGCRTFKDPQPSFNSPIAKLVQDYPIKSCSVVAHIRQANRGEVALENTHPFTRELWGRNWTYAHNGQLTGYKSLETGNFRPVGETDSEKAFCWLLHKLTQRYPRTPGNMAAVFKYIASLADELRQKGVFNMLLSDGRYVMAYCSTNLHWITRRAPFGVATLLDQDVEIDFSSQTTPNDVVTVIATQPLTGNETWQKIMPGEWRLFCLGERVVGLCGR | soluble
8 | MRGSHHHHHHTDPALRAIVISRHVAIPDGELEITAIRAQGAGGQHVNKTSTAIHLRFDIRASSLPEYYKERLLAASHHLISSDGVIVIKAQEYRSQELNREAALARLVAMIKELTTEKKARRPTRPTRASKERRLASKAQKSSVKAMRGKVRSGREGLCGR | soluble
9 | MRGSTRDQNGTWEMESNENFEGYMKALDIDFATRKIAVRLTQTKVIDQDGDNFKTKTTSTFRNYDVDFTVGVEFDEYTKSLDNRHVKALVTWEGDVLVCVQKGEKENRGWKQWIEGDKLYLELTCGDQVCRQVFKKKLVPR | soluble
10 | MRHDGRQHDELRPITFDLDFISHPEGSVLITAGNTKVICNASVEDRVPPFLRGGGKGWITAEYSMLPQATNQQTIQESSKGKISGRTMEIQRLIGRALRAVVDLEKLGERTIWIDCDVIQADGGTRTASITGAFLAMAIAIGKLIKAGTIKTNPITDFLAAISVGIDKEQGILLDLNYEEDSSAEVDMNVIMTGSGRFVELQGTGEEATFSREDLNGLLGLAEKGIQELIDKQKEVLGDSLPELK | soluble
11 | MRHNIKFKSKGTLKIRNTAQISLWKKCSDSMIADQTYLFINRVQDRRFDEESLRILELSLVAMNVKSFLEVRSRLRDFMRSESVVIFGELTGESMVAKLSVLEFFARAFALLGDMESCLAMRYEALNLRQLKSPSCLWLGVSHSEWTKFAVQSMENGFPSIAGKASENALLSLKKDSLIEPKSEDNSDILDAAEKVRRLRDSAASLTSSHSGIFIYIVSSLKFAVCNRLLTTF | soluble
12 | MRHRGGRGFRGWWLASTILLLVAEKPSHGYELAERLAEFGIEIPGIGHMGNIYRVLADLEESGFLSTEWDTTVSPPRKIYRITPQGKLYLREILRSLEDMKRRIETLEERIKRVLQEE | soluble
13 | MRIEEDLKLGFKDVLIRPKRSTLKSRSDVELERQFTFKHSGQSWSGVPIIAANMDTVGTFSMASALASFDILTAVHKHYSVEEWQAFINNSSADVLKHVMVSTGTSDADFEKTKQILDLNPALNFVCIDVANGYSEHFVQFVAKAREAWPTKTICAGNVVTGEMCEELILSGADIVKVGIGPGSVCTTRVKTGVGYPQLSAVIECADAAHGLGGMIVSDGGCTTPGDVAKAFGGGADFVMLGGMLAGHEESGGRIVEENGEKFMLFYGMSSESAMKRHVGGVAEYRAAEGKTVKLPLRGPVENTARDILGGLRSACTYVGASRLKELTKRTTFIRVQEQENRIFNNL | soluble
14 | MRIHAFHRLYQYRQSISTKPFNARGCKVQRCPFCQVSEQHCLCELQPDIDSNVACMLIVSENEVFKPSNTGRLIADTVKETYVYQWNRTEPSQEMLDLLSNEDYLPVIVFPADYVDQPERLLDGLHTEHLHRTDGNSKKWLLIFIDGSWREARKIFRRSEFLQSLPVLSIEPECLSEYIMRRSENEQHLSTAEVATLVLKQAGENKASECLQLWFEAFRETYMLTKTRVKNDPNRPHLKRFKEWLKTESLEHHHHHH | not soluble
15 | MRILFIGDVVGSPGRDMVKEYVPKLKTKYKPHFTIINGENAAHGKGLTEKIYHSLIQSGADAITMGNHTWDKKEIFDFIDDVPNLVRPANFPEGTPGKGITYVKANGKELAVINLQGRTFLPPLDDPFLKADELSPEAAKRTPYIFIDFHAEATSEKLALGWYTDGRASAVVGTHTHVQTADNRILPKGTAYITDVGMTGPYDGILGMDRETIIKRFKTNLPVRFTVAEGKTTLSGVVIDIDDQTKKAVKIERILINDDHMFFE | soluble
16 | MRILGEKVRQFRKRKGMSQKELADGICTQATISLIEKKSKIPSMKIMMKICNRLGIRLSEVIIENDDQLYRTFKKIDTLIRHTQLEEAQDVFQHIRPKQLRSNTDKKQYYYYEGYLQLVLNDNADEAIFNFGMLLNQFVKSSHDMFAILATLGTGLAYERKQAYDKAEIFVKQAVATLHTMDAQAMPMGDDDYLQNEILIYASAAQLYAKINFPEEALELIDLALKKAQESQSLYLLDRLYAQKAANEVVLNNVQSAHDHYYVAYALSLVTHNSSLTEKITKEMAEYHIAPLQVANDA | not soluble
17 | MRILLIEDDMLIGDGIKTGLSKMGFSVDWFTQGRQGKEALYSAPYDAVILDLTLPGMDGRDILREWREKGQREPVLILTARDALAERVEGLRLGADDYLCKPFALIEVAARLEALMRRTNGQASNELRHGNVMLDPGKRIATLAGEPLTLKPKEFALLELLMRNAGRVLSRKLIEEKLYTWDEEVTSNAVEVHVHHLRRKLGSDFIRTVHGIGYTLGEK | soluble
